According to the supplement of paper PMC10724198:
± gives the standard deviation of the averaged measurements.

What follows are sequences tested on Saccharomyces cerevisiae (assay: protein stability index of tFT-peptide fusion (C-terminal peptide) (PSI (0-1 scale)); higher = more stable (slower turnover)). Details: genetic background: wild type; temperature: 30 C.
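Further: PSI is a weighted mean of sequencing reads over stability bins, variants kept only with over 10 reads, mCherry proximal and sfGFP distal, peptide attached via GGGS linker.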

Sequence | protein stability index
VVAGGERMRTGV | 0.671 ± 0.022
VVCLGLPIQAGV | 0.526 ± 0.017
VVCVGGVELLVL | 0.532 ± 0.019
VVCVGSEVGEGG | 0.7243 ± 0.0045
VVFEVFLTHMSM | 0.624 ± 0.065
VVFFSSPHFVRA | 0.609 ± 0.05
VVGAVVLRRGGP | 0.67 ± 0.012
VVGFVPVWRAGS | 0.593 ± 0.031
VVGSVFGGVRAA | 0.708 ± 0.032
VVGVAVSRTFAR | 0.618 ± 0.039
VVIFPPTFISGG | 0.643 ± 0.1
VVIRVKDEPFIM | 0.6781 ± 0.0067
VVKFLALIPLSP | 0.583 ± 0.01
VVLLGAVGLVER | 0.679 ± 0.029
VVLRSTFFGSLL | 0.699 ± 0.0089
VVLSCGIPGCVF | 0.572 ± 0.028
VVLSRSLTDLVR | 0.677 ± 0.077
VVLTGPGYCLTL | 0.763 ± 0.047
VVNVVGRVVPKG | 0.7396 ± 0.006
VVQLSKWSTIIR | 0.64 ± 0.061
VVRHWRRMTGDA | 0.629 ± 0.12
VVRLGSNYYGGT | 0.756 ± 0.004
VVRWFGGGGVRG | 0.719 ± 0.1

Sequence | protein stability index
VVSGIFQVLATC | 0.614 ± 0.084
VVSHRGVGKGEG | 0.607 ± 0.047
VVSLGLGGFVVR | 0.719 ± 0.033
VVTGVRFGVGSI | 0.697 ± 0.039
VVVGGVWIRRVW | 0.654 ± 0.052
VVVGPVTKRGGH | 0.68 ± 0.046
VVVQSGSSYKEY | 0.7 ± 0.11
VVVVCSWPVSLL | 0.5744 ± 0.0042
VVVVSGFKGSCL | 0.637 ± 0.065
VVWRRVIGGLVM | 0.637 ± 0.031
VVWSWCWEYAAV | 0.625 ± 0.013
VWCWCGWGVWGL | 0.629 ± 0.063
VWFLSYLSVIFP | 0.58 ± 0.04
VWGGWRRGRAWW | 0.72411 ± 0.00051
VWGLGGEFWWGV | 0.745 ± 0.014
VWGQGTPFRVVM | 0.655 ± 0.091
VWGTVCSMRREG | 0.63 ± 0.028
VWLLSNGFLAVD | 0.706 ± 0.049
VWRHSGRVASLA | 0.624 ± 0.0098
VWTITGFIPVVF | 0.517 ± 0.032
VYEGIQEKTTRQ | 0.5754 ± 0.0057
VYHQLNDRLSLG | 0.70389 ± 0.00025
VYTFGASKSMLG | 0.629 ± 0.035

Sequence | protein stability index
VYVFGCVVGSGW | 0.639 ± 0.032
WAAGLRVCRSVL | 0.704 ± 0.052
WAASGGAARYAP | 0.684 ± 0.037
WADAAYLGCWWD | 0.737 ± 0.072
WAFGFLFISSAM | 0.5077 ± 0.0014
WAGGRHCKGVVV | 0.681 ± 0.13
WARGVAASGRFV | 0.6916 ± 0.0025
WASRSGPRVTLI | 0.71 ± 0.018
WCGDVLWLMSCG | 0.714 ± 0.016
WCGQVFWCVKES | 0.699 ± 0.039
WCLDCVGFSLPE | 0.687 ± 0.054
WCRVCNRLVVGV | 0.5258 ± 0.0015
WDSGRWSCLRGW | 0.698 ± 0.044
WDVVECCLWRYR | 0.681 ± 0.034
WERREGTGMRAG | 0.748 ± 0.051
WESGRNNWYMNK | 0.798 ± 0.13
WEVLGGFVWASC | 0.6828 ± 0.0045
WFLSGGCLFCWR | 0.714 ± 0.061
WFPRLGKRSRGS | 0.69 ± 0.025
WFQSSLVCDTWL | 0.681 ± 0.015
WFSSPVTISTRK | 0.692 ± 0.11
WGAGGGVWWGGV | 0.704 ± 0.03
WGAKGLESIHVM | 0.6 ± 0.019

Sequence | protein stability index
WGCAGVGGVGGG | 0.6853 ± 0.0065
WGCGGGRDGCGV | 0.647 ± 0.095
WGCGVRWGVDWA | 0.732 ± 0.026
WGGASIGMGFGA | 0.743 ± 0.036
WGGCNTALLTIL | 0.581 ± 0.018
WGGFLVDFGFQG | 0.757 ± 0.046
WGGLGRVWVKLG | 0.706 ± 0.038
WGGLGWVWVKLG | 0.685 ± 0.072
WGGTRCGGREVV | 0.692 ± 0.054
WGGVGLWGGWDG | 0.723 ± 0.058
WGGVRRHGVGGS | 0.648 ± 0.1
WGLIASGSIVIV | 0.548 ± 0.05
WGPGGRLGVGHV | 0.676 ± 0.039
WGRARCAVGVSG | 0.629 ± 0.0092
WGRCVGLAGAAG | 0.677 ± 0.027
WGREGRVPGWAG | 0.671 ± 0.11
WGRGGSGGSWGA | 0.688 ± 0.018
WGRGRGEMVGRT | 0.705 ± 0.038
WGRGRWEMVGRT | 0.693 ± 0.037
WGRNRGASDPNL | 0.7198 ± 0.0046
WGVGCVRGVWGA | 0.714 ± 0.088
WGVGWVLEVLLG | 0.529 ± 0.0066
WHSGVICQTVLM | 0.651 ± 0.014

Sequence | protein stability index
WICFDFLLPVAL | 0.549 ± 0.025
WIDSGCALVEIA | 0.701 ± 0.045
WIFPPLPPPLPR | 0.7174 ± 0.0037
WILDKECFKECD | 0.654 ± 0.046
WIPITSDKCNFK | 0.709 ± 0.06
WKCHRTDSRKRW | 0.726 ± 0.044
WKSSRSRCIHGE | 0.707 ± 0.026
WKVFKGLSADVS | 0.669 ± 0.026
WLGGGGTVAHSP | 0.726 ± 0.1
WLPPPPPPSPSS | 0.767 ± 0.0026
WLTNKYDNIVKD | 0.7634 ± 0.0068
WLVADWLLALFW | 0.627 ± 0.019
WLVGGGTVAHSP | 0.77 ± 0.088
WLVPSGTRTGRV | 0.678 ± 0.028
WLWYLSTRHSKL | 0.7871 ± 0.0037
WPCVGWTLCSCS | 0.541 ± 0.042
WPFHADPPPPVP | 0.6969 ± 0.0026
WPGRAVCLGAGW | 0.734 ± 0.056
WPSHVTLPYGLV | 0.6545 ± 0.0057
WQDTASNSNTTI | 0.719 ± 0.024
WRCSAITASEYL | 0.686 ± 0.032
WRDGSLKIKCML | 0.756 ± 0.21
WRLGGGMVCVAS | 0.566 ± 0.042

Sequence | protein stability index
WRNTGSTYYMKV | 0.723 ± 0.015
WRNVEITSGSPH | 0.672 ± 0.063
WRRCSGGGVGSP | 0.655 ± 0.084
WRRGMMGGLAIW | 0.698 ± 0.012
WSGNYSNITRYI | 0.66 ± 0.019
WSWTNDAFFGVV | 0.681 ± 0.068
WTLSGHKHIPED | 0.736 ± 0.013
WVAGPWLGRVQE | 0.733 ± 0.0083
WVLFRNKSVAAS | 0.527 ± 0.012
WVNGFCKKGSGH | 0.713 ± 0.015
WVRLITCVRCSR | 0.594 ± 0.048
WVTLGMGGECMR | 0.818 ± 0.14
WWGGGGGMQGVR | 0.674 ± 0.0096
WWGLGGREPGGS | 0.711 ± 0.072
WYCRWWGVRGGH | 0.672 ± 0.1
WYFSSPPPFFSP | 0.766 ± 0.058
WYGSYPLTLESY | 0.613 ± 0.013
WYMKFYNKKMKE | 0.702 ± 0.04
YALPPPPHPLSF | 0.591 ± 0.018
YASLPQSRPLSP | 0.651 ± 0.013
YCSIVRSLGSPL | 0.698 ± 0.065
YDLLLLLSLSRP | 0.644 ± 0.012
YFGGMGARGRER | 0.687 ± 0.0081

Sequence | protein stability index
YFRYGLELVTFG | 0.5004 ± 0.0013
YFSSSPVFPPHL | 0.667 ± 0.16
YFWFSRGLSVFF | 0.666 ± 0.0073
YGEGSPPCMPEL | 0.709 ± 0.017
YGFFCFLPVFRG | 0.661 ± 0.054
YGKELRRCKWVF | 0.581 ± 0.0072
YGNSFLVRPPGD | 0.712 ± 0.05
YGVRCSRINRSG | 0.678 ± 0.059
YGVRGFKGYYGG | 0.735 ± 0.0087
YHECWRTFTLCV | 0.532 ± 0.007
YHSSHTGEFLFL | 0.658 ± 0.053
YIIVSQRENRRQ | 0.758 ± 0.095
YINQWLNVKHGD | 0.635 ± 0.058
YISLQKGVMNEL | 0.728 ± 0.008
YIVARMVRAVIP | 0.741 ± 0.035
YKGNVRNPTLHA | 0.655 ± 0.05
YKKKKEEKNKKN | 0.583 ± 0.046
YKKKKKKKNNKK | 0.662 ± 0.043
YKNKKKKKNNKK | 0.661 ± 0.019
YLADPSPSIPIL | 0.649 ± 0.02
YLDVWTGLSCQD | 0.683 ± 0.11
YLGRDYYVVLWG | 0.7506 ± 0.0045
